Reference: patent US20210388087A1 (Chugai, published 2021)
Numbering of substitutions follows the chain as printed.

B1: GLS3000 H27dF (antibody, name in Kabat numbering, V domains shown)
VH: QVQLVESGGGVVQPGRSLRLSCAASGFTFSNAWMHWVRQAPGKGLEWVAQIKAKSNNYATYYAESVKGRFTISRDDSKNSLYLQMNSLKTEDTAVYYCRYVHYGAYYGVDAWGQGTTVTVSS
VL: DIVMTQSPLSLPVTPGEPASISCRSSQSLVFSNRNTYLHWYQQKPGQAPRLLIYKVSNRFSGVPDRFSGSGSGTDFTLKISRVEAEDVGVYYCGQGTQVPYTFGQGTKLEIK
notes: one-arm IgG as m2
B2: GLS3000 H34P (antibody, name in Kabat numbering, V domains shown)
VH: B1 VH
VL: B1 VL with F31H, H39P
notes: one-arm IgG as m2
B3: GLS3000 H34A (antibody, name in Kabat numbering, V domains shown)
VH: B1 VH
VL: B1 VL with F31H, H39A
notes: one-arm IgG as m2
B4: GLS3000 H34S (antibody, name in Kabat numbering, V domains shown)
VH: B1 VH
VL: B1 VL with F31H, H39S
notes: one-arm IgG as m2
B5: GLS3000 H34Y (antibody, name in Kabat numbering, V domains shown)
VH: B1 VH
VL: B1 VL with F31H, H39Y
notes: one-arm IgG as m2
B6: GLS3000 H27dT (antibody, name in Kabat numbering, V domains shown)
VH: B1 VH
VL: B1 VL with F31T
notes: one-arm IgG as m2
B7: GLS3000 H34L (antibody, name in Kabat numbering, V domains shown)
VH: B1 VH
VL: B1 VL with F31H, H39L
notes: one-arm IgG as m2
B8: GLS3000 K50L (antibody, name in Kabat numbering, V domains shown)
VH: B1 VH
VL: B1 VL with F31H, K55L
notes: one-arm IgG as m2
B9: GLS3000 H34V (antibody, name in Kabat numbering, V domains shown)
VH: B1 VH
VL: B1 VL with F31H, H39V
notes: one-arm IgG as m2
B10: GLS3000 H27dN (antibody, name in Kabat numbering, V domains shown)
VH: B1 VH
VL: B1 VL with F31N
notes: one-arm IgG as m2
B11: GLS3000 H27dK (antibody, name in Kabat numbering, V domains shown)
VH: B1 VH
VL: B1 VL with F31K
notes: one-arm IgG as m2
B12: GLS3000 H27dP (antibody, name in Kabat numbering, V domains shown)
VH: B1 VH
VL: B1 VL with F31P
notes: one-arm IgG as m2
B13: GLS3000 H27dQ (antibody, name in Kabat numbering, V domains shown)
VH: B1 VH
VL: B1 VL with F31Q
notes: one-arm IgG as m2
B14: GLS3000 K50R (antibody, name in Kabat numbering, V domains shown)
VH: B1 VH
VL: B1 VL with F31H, K55R
notes: one-arm IgG as m2
B15: GLS3000 H34W (antibody, name in Kabat numbering, V domains shown)
VH: B1 VH
VL: B1 VL with F31H, H39W
notes: one-arm IgG as m2
B16: GLS3000 K50D (antibody, name in Kabat numbering, V domains shown)
VH: B1 VH
VL: B1 VL with F31H, K55D
notes: one-arm IgG as m2
B17: GLS3000 H27dM (antibody, name in Kabat numbering, V domains shown)
VH: B1 VH
VL: B1 VL with F31M
notes: one-arm IgG as m2
B18: GLS3000 H34G (antibody, name in Kabat numbering, V domains shown)
VH: B1 VH
VL: B1 VL with F31H, H39G
notes: one-arm IgG as m2
B19: GLS3000 H34Q (antibody, name in Kabat numbering, V domains shown)
VH: B1 VH
VL: B1 VL with F31H, H39Q
notes: one-arm IgG as m2
B20: GLS3000 H34E (antibody, name in Kabat numbering, V domains shown)
VH: B1 VH
VL: B1 VL with F31H, H39E
notes: one-arm IgG as m2
B21: GLS3000 H34K (antibody, name in Kabat numbering, V domains shown)
VH: B1 VH
VL: B1 VL with F31H, H39K
notes: one-arm IgG as m2
B22: GLS3000 H27dL (antibody, name in Kabat numbering, V domains shown)
VH: B1 VH
VL: B1 VL with F31L
notes: one-arm IgG as m2
B23: GLS3000 K50T (antibody, name in Kabat numbering, V domains shown)
VH: B1 VH
VL: B1 VL with F31H, K55T
notes: one-arm IgG as m2
B24: GLS3000 K50A (antibody, name in Kabat numbering, V domains shown)
VH: B1 VH
VL: B1 VL with F31H, K55A
notes: one-arm IgG as m2
B25: GLS3000 H34M (antibody, name in Kabat numbering, V domains shown)
VH: B1 VH
VL: B1 VL with F31H, H39M
notes: one-arm IgG as m2
B26: GLS3000 H27dI (antibody, name in Kabat numbering, V domains shown)
VH: B1 VH
VL: B1 VL with F31I
notes: one-arm IgG as m2
B27: GLS3000 H34R (antibody, name in Kabat numbering, V domains shown)
VH: B1 VH
VL: B1 VL with F31H, H39R
notes: one-arm IgG as m2
B28: GLS3000 H27dR (antibody, name in Kabat numbering, V domains shown)
VH: B1 VH
VL: B1 VL with F31R
notes: one-arm IgG as m2
B29: GLS3000 H27dG (antibody, name in Kabat numbering, V domains shown)
VH: B1 VH
VL: B1 VL with F31G
notes: one-arm IgG as m2
B30: GLS3000 H34N (antibody, name in Kabat numbering, V domains shown)
VH: B1 VH
VL: B1 VL with F31H, H39N
notes: one-arm IgG as m2
B31: GLS3000 K50Q (antibody, name in Kabat numbering, V domains shown)
VH: B1 VH
VL: B1 VL with F31H, K55Q
notes: one-arm IgG as m2
B32: GLS3000 H34F (antibody, name in Kabat numbering, V domains shown)
VH: B1 VH
VL: B1 VL with F31H, H39F
notes: one-arm IgG as m2
B33: GLS3000 H27dV (antibody, name in Kabat numbering, V domains shown)
VH: B1 VH
VL: B1 VL with F31V
notes: one-arm IgG as m2
B34: GLS3000 H34D (antibody, name in Kabat numbering, V domains shown)
VH: B1 VH
VL: B1 VL with F31H, H39D
notes: one-arm IgG as m2
B35: GLS3000 H27dY (antibody, name in Kabat numbering, V domains shown)
VH: B1 VH
VL: B1 VL with F31Y
notes: one-arm IgG as m2
B36: GLS3000 K50P (antibody, name in Kabat numbering, V domains shown)
VH: B1 VH
VL: B1 VL with F31H, K55P
notes: one-arm IgG as m2
B37: GLS3000 K50S (antibody, name in Kabat numbering, V domains shown)
VH: B1 VH
VL: B1 VL with F31H, K55S
notes: one-arm IgG as m2
B38: GLS3000 H34I (antibody, name in Kabat numbering, V domains shown)
VH: B1 VH
VL: B1 VL with F31H, H39I
notes: one-arm IgG as m2
B39: GLS3000 H27dS (antibody, name in Kabat numbering, V domains shown)
VH: B1 VH
VL: B1 VL with F31S
notes: one-arm IgG as m2
B40: GLS3000 K50E (antibody, name in Kabat numbering, V domains shown)
VH: B1 VH
VL: B1 VL with F31H, K55E
notes: one-arm IgG as m2
B41: GLS3000 H27dW (antibody, name in Kabat numbering, V domains shown)
VH: B1 VH
VL: B1 VL with F31W
notes: one-arm IgG as m2
B42: GLS3000 H34T (antibody, name in Kabat numbering, V domains shown)
VH: B1 VH
VL: B1 VL with F31H, H39T
notes: one-arm IgG as m2
B43: GLS3000 K50G (antibody, name in Kabat numbering, V domains shown)
VH: B1 VH
VL: B1 VL with F31H, K55G
notes: one-arm IgG as m2

target: T1, CD3 epsilon homodimer protein (UniProt P07766 23-126); experiment: SPR Biacore T200, CD3e homodimer on chip, vs unaltered GLS3000 antibody
T1 construct: also called CD3 (CD3 epsilon)
T1 sequence (P07766 23-126): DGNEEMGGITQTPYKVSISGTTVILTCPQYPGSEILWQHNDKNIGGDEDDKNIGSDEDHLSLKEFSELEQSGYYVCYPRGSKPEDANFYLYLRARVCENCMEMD
Procedure: An appropriate amount of CD3 epsilon homodimer protein was immobilized onto Sensor chip CM4 (GE Healthcare Japan Corp.) by the amine coupling method. Then, the antibody having an appropriate concentration was injected thereto as an analyte and allowed to interact with the CD3 epsilon homodimer protein on the sensor chip. Then, the sensor chip was regenerated by the injection of 10 mmol/L glycine-HCl (pH 1.5). The assay was conducted at 25 degrees C., and HBS-EP+(GE Healthcare Japan Corp.) was used as a running buffer. […] Each parameter was calculated using Biacore T200 Evaluation Software (GE Healthcare Japan Corp.).

Row | Binder | ratio of amounts bound (Z=Y/X)
1 | B1 | 0.63
2 | B2 | 0.34
3 | B3 | 1.06
4 | B4 | 0.78
5 | B5 | 0.59
6 | B6 | 0.29
7 | B7 | 0.59
8 | B8 | 0.24
9 | B9 | 0.85
10 | B10 | 0.3
11 | B11 | 0.29
12 | B12 | 0.24
13 | B13 | 0.25
14 | B14 | 0.5
15 | B15 | 0.24
16 | B16 | 0.22
17 | B17 | 0.3
18 | B18 | 1.02
19 | B19 | 0.25
20 | B20 | 0.23
21 | B21 | 2.17
22 | B22 | 0.3

Row | Binder | ratio of amounts bound (Z=Y/X)
23 | B23 | 0.19
24 | B24 | 0.23
25 | B25 | 0.35
26 | B26 | 0.26
27 | B27 | 0.2
28 | B28 | 0.31
29 | B29 | 0.3
30 | B30 | 0.65
31 | B31 | 0.18
32 | B32 | 0.27
33 | B33 | 0.3
34 | B34 | 0.22
35 | B35 | 0.64
36 | B36 | 0.3
37 | B37 | 0.23
38 | B38 | 0.65
39 | B39 | 0.32
40 | B40 | 0.24
41 | B41 | 0.39
42 | B42 | 0.89
43 | B43 | 0.16
